To fix the notation:
T1: native human factor VIII (nhfVIII) (human, UniProt P00451 20-2351)
T1 chain 1: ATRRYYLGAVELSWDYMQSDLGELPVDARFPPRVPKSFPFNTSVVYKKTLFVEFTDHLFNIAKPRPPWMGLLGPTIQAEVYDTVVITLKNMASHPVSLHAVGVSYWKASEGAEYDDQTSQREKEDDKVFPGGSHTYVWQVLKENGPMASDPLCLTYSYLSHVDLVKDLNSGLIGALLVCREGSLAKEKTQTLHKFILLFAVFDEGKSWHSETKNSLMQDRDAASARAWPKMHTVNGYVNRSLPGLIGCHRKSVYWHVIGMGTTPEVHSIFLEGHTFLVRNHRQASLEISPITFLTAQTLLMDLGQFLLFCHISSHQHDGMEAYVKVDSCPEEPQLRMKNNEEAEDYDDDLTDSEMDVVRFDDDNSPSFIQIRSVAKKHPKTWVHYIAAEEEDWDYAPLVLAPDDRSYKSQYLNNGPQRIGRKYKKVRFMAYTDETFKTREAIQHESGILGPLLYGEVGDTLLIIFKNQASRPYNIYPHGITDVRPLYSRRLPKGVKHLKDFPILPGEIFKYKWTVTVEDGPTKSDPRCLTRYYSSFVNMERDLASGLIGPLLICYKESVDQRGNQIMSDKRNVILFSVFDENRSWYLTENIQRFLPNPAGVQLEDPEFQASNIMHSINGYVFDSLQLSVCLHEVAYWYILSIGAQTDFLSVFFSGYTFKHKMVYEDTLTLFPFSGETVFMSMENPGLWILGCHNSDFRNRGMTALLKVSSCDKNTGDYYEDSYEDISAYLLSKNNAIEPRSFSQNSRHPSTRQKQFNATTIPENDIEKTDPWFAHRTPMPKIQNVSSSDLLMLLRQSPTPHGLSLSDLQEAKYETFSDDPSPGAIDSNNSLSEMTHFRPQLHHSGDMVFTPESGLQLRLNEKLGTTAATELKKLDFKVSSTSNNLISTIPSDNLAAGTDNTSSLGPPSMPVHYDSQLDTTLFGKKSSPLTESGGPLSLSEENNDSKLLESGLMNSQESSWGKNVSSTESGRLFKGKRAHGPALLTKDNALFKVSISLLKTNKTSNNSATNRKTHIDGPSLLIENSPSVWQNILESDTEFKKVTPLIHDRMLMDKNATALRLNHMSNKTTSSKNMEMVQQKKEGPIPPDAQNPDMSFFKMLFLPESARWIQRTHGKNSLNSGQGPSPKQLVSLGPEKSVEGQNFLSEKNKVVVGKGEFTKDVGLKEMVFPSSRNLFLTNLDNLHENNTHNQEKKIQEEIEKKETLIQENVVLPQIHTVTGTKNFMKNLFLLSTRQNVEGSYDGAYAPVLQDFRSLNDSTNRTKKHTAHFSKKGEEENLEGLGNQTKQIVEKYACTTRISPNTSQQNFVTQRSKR
T1 chain 2: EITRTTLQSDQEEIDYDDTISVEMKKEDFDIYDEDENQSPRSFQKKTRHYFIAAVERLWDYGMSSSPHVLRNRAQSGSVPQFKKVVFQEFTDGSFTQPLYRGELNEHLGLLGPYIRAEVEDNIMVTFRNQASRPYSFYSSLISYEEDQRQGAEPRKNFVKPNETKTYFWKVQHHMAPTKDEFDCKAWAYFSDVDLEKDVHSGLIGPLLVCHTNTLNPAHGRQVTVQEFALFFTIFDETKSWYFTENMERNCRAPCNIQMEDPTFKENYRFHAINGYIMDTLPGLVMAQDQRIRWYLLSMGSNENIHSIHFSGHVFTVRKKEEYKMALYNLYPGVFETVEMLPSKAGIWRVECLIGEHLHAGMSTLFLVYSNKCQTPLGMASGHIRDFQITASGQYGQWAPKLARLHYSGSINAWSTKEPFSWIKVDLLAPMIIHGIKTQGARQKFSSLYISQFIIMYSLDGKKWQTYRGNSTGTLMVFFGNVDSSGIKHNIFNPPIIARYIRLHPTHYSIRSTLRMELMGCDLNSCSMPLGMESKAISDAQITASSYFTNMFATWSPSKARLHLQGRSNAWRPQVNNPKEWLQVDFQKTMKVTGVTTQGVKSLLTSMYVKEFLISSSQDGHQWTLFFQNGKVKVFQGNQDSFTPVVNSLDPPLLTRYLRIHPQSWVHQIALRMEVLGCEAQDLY

B1: CS-454 (AEGTGDHLCGAWFRPCDADPGPEGGGS-NHNH2) (peptide)
peptide: AEGTGDHLCGAWFRPCDADPGPEGGGS-NHNH2
modifications: disulfide 9-16
notes: synthetic peptide immobilized on Toyopearl Formyl 650-M resin by hydrazone bond
B2: CS-458 (AEGTGDFCWVFAFDHCHDPGPEGGGS-NHNH2) (peptide)
peptide: AEGTGDFCWVFAFDHCHDPGPEGGGS-NHNH2
modifications: disulfide 8-16
notes: as for B1
B3: CS-456 (AEGTGDFGCSWLFPCPFDPGPEGGGS-NHNH2) (peptide)
peptide: AEGTGDFGCSWLFPCPFDPGPEGGGS-NHNH2
modifications: disulfide 9-15
notes: as for B1

Positions of bridges follow the written chain, without caps; N, C: chain ends. No end group written: not given here. *: point of attachment. NHNH2 = NN*

The target of the assay is T1, native human factor VIII (nhfVIII). Put plainly: batch binding to peptide beads; fractions by sandwich ELISA; % of total recovered. For orientation: In an ELISA, binding on a coated surface is turned into a signal by an enzyme label.
In the case of B1, the “% of total recovered in Eluate” value is 21%, the “% of total recovered in Unbound” value stood at 67% and the “% of total recovered in Wash” value worked out at 12%.
On the same counts, the results for B2 are 39%, 48% and 13%.
On to B3, for which the “% of total recovered in Eluate” value turned out to be 16%, the “% of total recovered in Unbound” value was determined as 70% and the “% of total recovered in Wash” value came to 14%.

Values taken from patent US20120045819A1 (published 2012).
